Source: the Human Domainome abundance scans (Beltran et al. 2025)
± gives the uncertainty stated by the source.

Experiment: abundance fitness (aPCA) (normalised: wild type 0, dead -1); higher = more abundant; growth selection in yeast, the domain comes from the species named
Settings: Homo sapiens
Substance “Scaffold attachment factor B1 P72Q, Q15424” has an abundance fitness of -0.432 ± 0.098.
“Scaffold attachment factor B1 P72R, Q15424” showed an abundance fitness of -0.23 ± 0.052.
With “Scaffold attachment factor B1 P72S, Q15424” the abundance fitness was -0.197 ± 0.058.
In the case of “Scaffold attachment factor B1 P72T, Q15424”, the abundance fitness is reported as -0.329 ± 0.085.
“Scaffold attachment factor B1 P72V, Q15424” gave an abundance fitness of -0.116 ± 0.053.
Work on “Scaffold attachment factor B1 P72W, Q15424” yielded an abundance fitness of -0.296 ± 0.068.
“Scaffold attachment factor B1 P72Y, Q15424” showed an abundance fitness of -0.176 ± 0.06.
In the case of “Scaffold attachment factor B1 R29A, Q15424”, the abundance fitness is reported as -0.465 ± 0.072.
In the case of “Scaffold attachment factor B1 R29C, Q15424”, the abundance fitness is reported as -0.107 ± 0.073.
Substance “Scaffold attachment factor B1 R29D, Q15424” has an abundance fitness of -0.37 ± 0.091.
For “Scaffold attachment factor B1 R29E, Q15424”, the abundance fitness was -0.143 ± 0.068.
“Scaffold attachment factor B1 R29F, Q15424” gave an abundance fitness of -0.03 ± 0.06.
Substance “Scaffold attachment factor B1 R29G, Q15424” has an abundance fitness of -0.18 ± 0.049.
“Scaffold attachment factor B1 R29H, Q15424” gave an abundance fitness of -0.262 ± 0.088.
With “Scaffold attachment factor B1 R29I, Q15424” the abundance fitness was -0.019 ± 0.062.
With “Scaffold attachment factor B1 R29K, Q15424” the abundance fitness was -0.086 ± 0.083.
In the case of “Scaffold attachment factor B1 R29L, Q15424”, the abundance fitness is reported as -0.134 ± 0.048.
“Scaffold attachment factor B1 R29M, Q15424” gave an abundance fitness of 0.03 ± 0.077.
With “Scaffold attachment factor B1 R29N, Q15424” the abundance fitness was -0.408 ± 0.1.
For “Scaffold attachment factor B1 R29P, Q15424”, the abundance fitness was -0.364 ± 0.063.
In the case of “Scaffold attachment factor B1 R29Q, Q15424”, the abundance fitness is reported as -0.222 ± 0.089.
“Scaffold attachment factor B1 R29S, Q15424” gave an abundance fitness of -0.189 ± 0.063.
“Scaffold attachment factor B1 R29T, Q15424” showed an abundance fitness of -0.141 ± 0.062.
With “Scaffold attachment factor B1 R29V, Q15424” the abundance fitness was -0.08 ± 0.059.
For “Scaffold attachment factor B1 R29Y, Q15424”, the abundance fitness was -0.056 ± 0.076.
Work on “Scaffold attachment factor B1 R30A, Q15424” yielded an abundance fitness of -0.289 ± 0.066.
Substance “Scaffold attachment factor B1 R30C, Q15424” has an abundance fitness of -0.409 ± 0.1.
Substance “Scaffold attachment factor B1 R30D, Q15424” has an abundance fitness of -0.384 ± 0.092.
“Scaffold attachment factor B1 R30E, Q15424” gave an abundance fitness of -0.252 ± 0.06.
For “Scaffold attachment factor B1 R30G, Q15424”, the abundance fitness was -0.31 ± 0.061.
“Scaffold attachment factor B1 R30H, Q15424” gave an abundance fitness of -0.16 ± 0.063.
Work on “Scaffold attachment factor B1 R30I, Q15424” yielded an abundance fitness of -0.33 ± 0.073.
Substance “Scaffold attachment factor B1 R30K, Q15424” has an abundance fitness of -0.037 ± 0.066.
In the case of “Scaffold attachment factor B1 R30L, Q15424”, the abundance fitness is reported as -0.218 ± 0.051.
“Scaffold attachment factor B1 R30M, Q15424” showed an abundance fitness of -0.206 ± 0.077.
“Scaffold attachment factor B1 R30N, Q15424” gave an abundance fitness of -0.411 ± 0.1.
With “Scaffold attachment factor B1 R30P, Q15424” the abundance fitness was -0.545 ± 0.094.
With “Scaffold attachment factor B1 R30Q, Q15424” the abundance fitness was -0.25 ± 0.082.
Substance “Scaffold attachment factor B1 R30S, Q15424” has an abundance fitness of -0.133 ± 0.062.
For “Scaffold attachment factor B1 R30V, Q15424”, the abundance fitness was -0.493 ± 0.052.
“Scaffold attachment factor B1 R30W, Q15424” gave an abundance fitness of -0.444 ± 0.053.
With “Scaffold attachment factor B1 R30Y, Q15424” the abundance fitness was -0.383 ± 0.086.
For “Scaffold attachment factor B1 R35A, Q15424”, the abundance fitness was -0.112 ± 0.059.
Substance “Scaffold attachment factor B1 R35C, Q15424” has an abundance fitness of -0.4 ± 0.073.
